T1: VARC (cytoplasmic acidic terminal sequence domain of P. falciparum erythrocyte membrane protein-1, PfEMP1) (Plasmodium falciparum, UniProt Q8IAK2 2467-2757)
T1 construct: also called ATS; cytoplasmic domain of PfEMP1; source: E. coli BL21 (DE3) CodonPlus, purified (Ni-NTA, gel permeation chromatography on Superdex 75)
T1 sequence: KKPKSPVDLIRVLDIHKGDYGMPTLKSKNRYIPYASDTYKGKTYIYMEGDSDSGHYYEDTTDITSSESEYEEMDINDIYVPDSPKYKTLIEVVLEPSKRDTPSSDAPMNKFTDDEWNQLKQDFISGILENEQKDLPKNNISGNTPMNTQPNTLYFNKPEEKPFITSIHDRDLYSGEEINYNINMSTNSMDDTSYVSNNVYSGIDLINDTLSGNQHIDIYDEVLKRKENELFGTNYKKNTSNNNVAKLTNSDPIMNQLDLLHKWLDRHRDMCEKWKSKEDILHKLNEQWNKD


Experiments:
[1] = target: VARC (acidic terminal segment, cytoplasmic domain fragment of PfEMP1, comprising VARC A and VARC B); assay: ITC (GE MicroCal ITC200); details: pH 6.9, 298 K, 0.013 M (no added salt), 10 mM sodium phosphate
[2] = target: T1, VARC (cytoplasmic acidic terminal …); assay: ITC; 0.7 mM K2A1 in the syringe, 0.07 mM VARC in the cell; 298 K; 10 mM sodium phosphate pH 6.9, 5 mM DTT, no additional salt; 40 injections of 1 μL; fitted to a sequential four site model, and to a simple hetero-association model (A + B <-> AB) in SEDPHAT for an apparent global Kd; details: both partners purified
[3] = target: T1, VARC (cytoplasmic acidic terminal …); assay: NMR titration; 2D [15N,1H] HSQC of 10 μM 15N-labelled K2A1 with unlabelled VARC added at 1:1, 1:2.5, 1:5, 1:7.5 and 1:10 molar ratios; 278 K; 10 mM sodium phosphate pH 6.2, 5 mM DTT, no additional salt (ionic strength 0.013 M); Kd by fit of amide chemical shift perturbations; the 1:5 complex also measured at 20, 50, 100 and 150 mM NaCl; details: both partners purified

Molecule	Kd (first value, four-site sequential model) [1] [µM]	Kd (fourth value, four-site sequential model) [1] [µM]	Kd (second value, four-site sequential model) [1] [µM]	Kd (third value, four-site sequential model) [1] [µM]	Kd [2] [µM]	Kd of site 1 (four-site binding model) [2] [µM]	Kd of site 2 (four-site binding model) [2] [µM]	Kd of site 3 (four-site binding model) [2] [µM]	Kd of site 4 (four-site binding model) [2] [µM]	Kd [3] [µM]
K2A1 (first tandem repeat of the K2A lysine-rich region of knob-associated histidine-rich protein, KAHRP)	9.8	9.6	10.3	10.1	–	–	–	–	–	–
KHHSSKKHEGNDGEGEKKKKSKKHKDHDGEKKKSKKHKDNEDAESVKSKK (domain or fragment, also called truncated K2A; source: E. coli BL21 (DE3) CodonPlus, purified (Ni-NTA, gel permeation chromatography on Superdex 75); not shown: His6, C-terminal, kept)	–	–	–	–	32.1	9.8	10.3	10.1	9.6	7 to 15

— PMC4345318, “Dynamic association of PfEMP1 and KAHRP in knobs mediates cytoadherence during Plasmodium invasion” (Scientific Reports, 2015)
